Source: patent US20210171950, “METHOD OF PRODUCING AN APTAMER AND USES THEREOF” (City University of Hong Kong, published 2021)

Molecular target: T1, RHAU53 peptide (DHX36/RHAU residues 53-106 as printed) (UniProt Q9H2U1 SEQ:1-53)
T1 sequence: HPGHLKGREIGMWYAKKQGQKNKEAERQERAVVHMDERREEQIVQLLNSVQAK
Test: EMSA; 80 nM RHAU53, 2 nM FAM-D-TERRA; 25 mM Tris-HCl pH 7.5, 150 mM KCl, 1 mM MgCl2, 37 C; gel with 40 mM KOAc; complex formation inhibited by L-RNA Ap3-7 (SEQ 19, binds the TERRA RNA) with IC50 937.1±1.7 nM
Details: tags: peptide obtained from OriGene; label: 5'FAM; G4 (3 G-quartets, UUA loops)
Procedure: L-RNA Ap3-7 and S′FAM labelled D-RNA TERRA were heated at 75° C. for 3 minutes and cooled down separately. Then, reaction mixtures containing 2 nM 5′FAM labelled D-TERRA, 25 mM Tris-HCl (pH 7.5), 150 mM KCl and 1 mM MgCl₂ were prepared. Corresponding amount of L-Ap3-7 and 80 nM RHAU53 were premixed, then added to the specific samples and incubated at 37° C. for 30 minutes. The final samples were loaded onto a native PAGE (6%, 49:1), containing 40 mM KOAc, 1 mM MgCl₂ and 0.5×TBE (pH 8.3), and run at 30 mA for 75 minutes.
To study if L-Ap3-7 can compete with rG4-binding protein and inhibit the D-TERRA rG4-protein complex formation, the inventors have tested it with RHAU53 peptide. Particularly, L-RNA Ap3-7 and S′FAM labelled D-RNA TERRA were heated at 75° C. for 3 minutes and cooled down separately. Then, reaction mixtures containing 2 nM 5′FAM labelled D-TERRA, 25 mM Tris-HCl (pH 7.5), 150 mM KCl and 1 mM MgCl₂ were prepared. Corresponding amount of L-Ap3-7 and 80 nM RHAU53 were premixed, then added to the specific samples and incubated at 37° C. for 30 minutes. The final samples were loaded onto a native PAGE (6%, 49:1), containing 40 mM KOAc, 1mM MgCl₂ and 0.5 X TBE (pH 8.3), and run at 30 mA for 75 minutes. […]

## UUAGGGUUAGGGUUAGGGUUAGGG (ssRNA) [D-TERRA rG4]
  binding result: binds
